Data taken from patent US20230357367A1 (GENERATE BIOMEDICINES, published 2023).
Read-outs that look alike come from different tables or passages of the source.

Tests used:
[1] = target: SARS-CoV-1 spike trimer (recombinant) (SARS-CoV-1, UniProt P59594 14-1195)
[2] = target: T1, SARS-CoV-1 Spike on pseudovirus (SARS-CoV-1, UniProt P59594 14-1255); assay: cell-based or functional assay
[3] = target: T2, WIV1 Spike on pseudovirus (WIV1 (bat SARS-like coronavirus)); assay: cell-based or functional assay
[4] = target: T1, SARS-CoV-1 Spike on pseudovirus; assay: cell-based or functional assay; remark: listed apart in the source
[5] = target: T2, WIV1 Spike on pseudovirus; assay: cell-based or functional assay; remark: listed apart in the source
[6] = target: T1, SARS-CoV-1 Spike on pseudovirus; assay: cell-based or functional assay; remark: listed apart in the source
[7] = target: T2, WIV1 Spike on pseudovirus; assay: cell-based or functional assay; remark: listed apart in the source

B1: AB-1 (antibody, V domains shown)
VH: EVQLVESGAEVKKPGESLKISCKGSGYTFTRYWIGWVRQMPGKGLEWMGIIYPGDSDVRYSPSFQGHVTISADKSISTAYLQWNSLKASDTAMYYCARLPQYCSKGVCYRWFDPWGQGTLVTVSS
VL: EIVLTQSPSSVSASVGDRVTITCRASQGISSWLAWYQQKPGKAPKLLIYAASSLQSGVPSRFSGSGSGTDFTLTISSLQPEDFATYYCQQGHSFPYTFGQGTNLEIK
EC50 [1]: 0.065 µg/mL
IC50, pseudovirus neutralization [2]: 0.04 µg/mL
IC50, pseudovirus neutralization [3]: 0.069 µg/mL
IC50, pseudovirus neutralization [4]: 0.009 µg/mL
IC50, pseudovirus neutralization [5]: 0.0139 µg/mL
% neutralization at 4.5 µg/ml, pseudovirus [6]: 99%
% neutralization at 4.5 µg/ml, pseudovirus [7]: 101%
